The text below walks through data of patent publication US20240390508A1 (Takeda / Millennium, published 2024).

To fix the notation:
B1: peptide-HDO conjugate of Example 34 (first nucleic acid strand A2, second nucleic acid strand C26) (peptide)
peptide: AVFVWNYYIIRRYYC
modifications: MeF at 3, MeY at 14 (N-methyl); thioether ring from N-terminal chloroacetyl-Ala to Cys 15; C-terminal Gly-KN3-NH2, azide joined to BCN on the oligonucleotide
notes: also called A2/C26
B2: peptide-HDO conjugate of Example 26 (first nucleic acid strand A1, second nucleic acid strand C26) (peptide)
peptide: AVFVWNYYIIRRYYC
modifications: MeF at 3, MeY at 14 (N-methyl); thioether ring from N-terminal chloroacetyl-Ala to Cys 15; C-terminal Gly-KN3-NH2, azide joined to BCN on the oligonucleotide
notes: also called A1/C26
B3: Y11-PMO conjugate of Example 58 (peptide)
peptide: AVFVWNYYIIRRYYC
chain: GGGEEESSC
modifications: not fully specified; N-terminal BCN; C-terminal amide; tBuS removed from Cys, Cys thiol joined to 3-maleimide propionyl A1; MeF at 3, MeY at 14 (N-methyl); thioether ring from N-terminal chloroacetyl-Ala to Cys 15; C-terminal Gly-KN3-NH2, azide joined to BCN of the linker peptide
B4: peptide-HDO conjugate of Example 13 (first nucleic acid strand A2, second nucleic acid strand C13) (peptide)
peptide: AVFVWNYYIIRRYYC
modifications: MeF at 3, MeY at 14 (N-methyl); thioether ring from N-terminal chloroacetyl-Ala to Cys 15; C-terminal Gly-KN3-NH2, azide joined to BCN on the oligonucleotide
notes: also called A2/C13
B5: peptide-HDO conjugate of Example 32 (first nucleic acid strand A1, second nucleic acid strand C32) (peptide)
peptide: AVFVWNYYIIRRYYC
modifications: MeF at 3, MeY at 14 (N-methyl); thioether ring from N-terminal chloroacetyl-Ala to Cys 15; C-terminal Gly-KN3-NH2, azide joined to BCN on the oligonucleotide
notes: also called A1/C32
B6: peptide-HDO conjugate of Example 46 (first nucleic acid strand A2, second nucleic acid strand C44) (peptide)
peptide: AVFVWNYYIIRRYYC
modifications: MeF at 3, MeY at 14 (N-methyl); thioether ring from N-terminal chloroacetyl-Ala to Cys 15; C-terminal Gly-KN3-NH2, azide joined to BCN on the oligonucleotide
notes: also called A2/C44
B7: peptide-HDO conjugate of Example 42 (first nucleic acid strand A1, second nucleic acid strand C42) (peptide)
peptide: AVFVWNYYIIRRYYC
modifications: MeF at 3, MeY at 14 (N-methyl); thioether ring from N-terminal chloroacetyl-Ala to Cys 15; C-terminal Gly-KN3-NH2, azide joined to BCN on the oligonucleotide
notes: also called A1/C42
B8: peptide-HDO conjugate of Example 30 (first nucleic acid strand A1, second nucleic acid strand C30) (peptide)
peptide: AVFVWNYYIIRRYYC
modifications: MeF at 3, MeY at 14 (N-methyl); thioether ring from N-terminal chloroacetyl-Ala to Cys 15; C-terminal Gly-KN3-NH2, azide joined to BCN on the oligonucleotide
notes: also called A1/C30
B9: peptide-HDO conjugate of Example 43 (first nucleic acid strand A2, second nucleic acid strand C42) (peptide)
peptide: AVFVWNYYIIRRYYC
modifications: MeF at 3, MeY at 14 (N-methyl); thioether ring from N-terminal chloroacetyl-Ala to Cys 15; C-terminal Gly-KN3-NH2, azide joined to BCN on the oligonucleotide
notes: also called A2/C42
B10: peptide-HDO conjugate of Example 29 (first nucleic acid strand A1, second nucleic acid strand C29) (peptide)
peptide: AVFVWNYYIIRRYYC
modifications: MeF at 3, MeY at 14 (N-methyl); thioether ring from N-terminal chloroacetyl-Ala to Cys 15; C-terminal Gly-KN3-NH2, azide joined to BCN on the oligonucleotide
notes: also called A1/C29
B11: peptide-HDO conjugate of Example 4 (first nucleic acid strand A1, second nucleic acid strand C4) (peptide)
peptide: AVFVWNYYIIRRYYC
modifications: MeF at 3, MeY at 14 (N-methyl); thioether ring from N-terminal chloroacetyl-Ala to Cys 15; C-terminal Gly-KN3-NH2, azide joined to BCN on the oligonucleotide
notes: also called A1/C4
B12: Y14-PMO conjugate of Example 61 (peptide)
peptide: AVFVWNYYIIRRYYC
chain: KKKG
modifications: not fully specified; N-terminal 4-pentynoyl-AEEA; ivDde groups on the three Lys removed with hydrazine; C-terminal Gly coupled to PMO A4; MeF at 3, MeY at 14 (N-methyl); thioether ring from N-terminal chloroacetyl-Ala to Cys 15; C-terminal Gly-KN3-NH2, azide joined by copper-catalysed click to the 4-pentynoyl group of the linker …
B13: peptide-HDO conjugate of Example 11 (first nucleic acid strand A2, second nucleic acid strand C11) (peptide)
peptide: AVFVWNYYIIRRYYC
modifications: MeF at 3, MeY at 14 (N-methyl); thioether ring from N-terminal chloroacetyl-Ala to Cys 15; C-terminal Gly-KN3-NH2, azide joined to BCN on the oligonucleotide
notes: also called A2/C11
B14: peptide-HDO conjugate of Example 50 (first nucleic acid strand A1, second nucleic acid strand C50) (peptide)
peptide: AVFVWNYYIIRRYYC
modifications: MeF at 3, MeY at 14 (N-methyl); thioether ring from N-terminal chloroacetyl-Ala to Cys 15; C-terminal Gly-PEG12c-KN3-NH2, azide joined to BCN on the oligonucleotide
notes: also called A1/C50
B15: peptide-HDO conjugate of Example 53 (first nucleic acid strand A2, second nucleic acid strand C50) (peptide)
peptide: AVFVWNYYIIRRYYC
modifications: MeF at 3, MeY at 14 (N-methyl); thioether ring from N-terminal chloroacetyl-Ala to Cys 15; C-terminal Gly-PEG12c-KN3-NH2, azide joined to BCN on the oligonucleotide
notes: also called A2/C50
B16: peptide-HDO conjugate of Example 27 (first nucleic acid strand A1, second nucleic acid strand C27) (peptide)
peptide: AVFVWNYYIIRRYYC
modifications: MeF at 3, MeY at 14 (N-methyl); thioether ring from N-terminal chloroacetyl-Ala to Cys 15; C-terminal Gly-KN3-NH2, azide joined to BCN on the oligonucleotide
notes: also called A1/C27
B17: peptide-HDO conjugate of Example 25 (first nucleic acid strand A2, second nucleic acid strand C20) (peptide)
peptide: AVFVWNYYIIRRYYC
modifications: MeF at 3, MeY at 14 (N-methyl); thioether ring from N-terminal chloroacetyl-Ala to Cys 15; C-terminal Gly-KN3-NH2, azide joined to BCN on the oligonucleotide
notes: also called A2/C20
B18: peptide-HDO conjugate of Example 14 (first nucleic acid strand A2, second nucleic acid strand C4) (peptide)
peptide: AVFVWNYYIIRRYYC
modifications: MeF at 3, MeY at 14 (N-methyl); thioether ring from N-terminal chloroacetyl-Ala to Cys 15; C-terminal Gly-KN3-NH2, azide joined to BCN on the oligonucleotide
notes: also called A2/C4
B19: Y6-HDO conjugate of Example 1 (compound A1 annealed with compound C1) (peptide)
peptide: AVFVWNYYIIRRYYC
modifications: MeF at 3, MeY at 14 (N-methyl); thioether ring from N-terminal chloroacetyl-Ala to Cys 15; C-terminal Gly-KN3-NH2, azide joined to BCN on the oligonucleotide
notes: also called A1/C1
B20: peptide-HDO conjugate of Example 52 (first nucleic acid strand A2, second nucleic acid strand C49) (peptide)
peptide: AVFVWNYYIIRRYYC
modifications: MeF at 3, MeY at 14 (N-methyl); thioether ring from N-terminal chloroacetyl-Ala to Cys 15; C-terminal Gly-PEG4c-KN3-NH2, azide joined to BCN on the oligonucleotide
notes: also called A2/C49
B21: peptide-HDO conjugate of Example 6 (first nucleic acid strand A1, second nucleic acid strand C6) (peptide)
peptide: AVFVWNYYIIRRYYC
modifications: MeF at 3, MeY at 14 (N-methyl); thioether ring from N-terminal chloroacetyl-Ala to Cys 15; C-terminal Gly-KN3-NH2, azide joined to BCN on the oligonucleotide
notes: also called A1/C6
B22: peptide-HDO conjugate of Example 56 (first nucleic acid strand A4, second nucleic acid strand C56) (peptide)
peptide: AVFVWNYYIIRRYYC
modifications: not fully specified; MeF at 3, MeY at 14 (N-methyl); thioether ring from N-terminal chloroacetyl-Ala to Cys 15; C-terminal Gly-KN3-NH2, azide joined to BCN on the oligonucleotide
notes: also called A4/C56
B23: peptide-HDO conjugate of Example 2 (first nucleic acid strand A1, second nucleic acid strand C2) (peptide)
peptide: AVFVWNYYIIRRYYC
modifications: MeF at 3, MeY at 14 (N-methyl); thioether ring from N-terminal chloroacetyl-Ala to Cys 15; C-terminal Gly-KN3-NH2, azide joined to BCN on the oligonucleotide
notes: also called A1/C2
B24: peptide-HDO conjugate of Example 23 (first nucleic acid strand A2, second nucleic acid strand C18) (peptide)
peptide: AVFVWNYYIIRRYYC
modifications: MeF at 3, MeY at 14 (N-methyl); thioether ring from N-terminal chloroacetyl-Ala to Cys 15; C-terminal Gly-KN3-NH2, azide joined to BCN on the oligonucleotide
notes: also called A2/C18
B25: peptide-HDO conjugate of Example 37 (first nucleic acid strand A2, second nucleic acid strand C29) (peptide)
peptide: AVFVWNYYIIRRYYC
modifications: MeF at 3, MeY at 14 (N-methyl); thioether ring from N-terminal chloroacetyl-Ala to Cys 15; C-terminal Gly-KN3-NH2, azide joined to BCN on the oligonucleotide
notes: also called A2/C29
B26: peptide-HDO conjugate of Example 16 (first nucleic acid strand A2, second nucleic acid strand C16) (peptide)
peptide: AVFVWNYYIIRRYYC
modifications: MeF at 3, MeY at 14 (N-methyl); thioether ring from N-terminal chloroacetyl-Ala to Cys 15; C-terminal Gly-KN3-NH2, azide joined to BCN on the oligonucleotide
notes: also called A2/C16
B27: peptide-HDO conjugate of Example 38 (first nucleic acid strand A2, second nucleic acid strand C30) (peptide)
peptide: AVFVWNYYIIRRYYC
modifications: MeF at 3, MeY at 14 (N-methyl); thioether ring from N-terminal chloroacetyl-Ala to Cys 15; C-terminal Gly-KN3-NH2, azide joined to BCN on the oligonucleotide
notes: also called A2/C30

T1 sequence (P02786 89-760 limits assumed): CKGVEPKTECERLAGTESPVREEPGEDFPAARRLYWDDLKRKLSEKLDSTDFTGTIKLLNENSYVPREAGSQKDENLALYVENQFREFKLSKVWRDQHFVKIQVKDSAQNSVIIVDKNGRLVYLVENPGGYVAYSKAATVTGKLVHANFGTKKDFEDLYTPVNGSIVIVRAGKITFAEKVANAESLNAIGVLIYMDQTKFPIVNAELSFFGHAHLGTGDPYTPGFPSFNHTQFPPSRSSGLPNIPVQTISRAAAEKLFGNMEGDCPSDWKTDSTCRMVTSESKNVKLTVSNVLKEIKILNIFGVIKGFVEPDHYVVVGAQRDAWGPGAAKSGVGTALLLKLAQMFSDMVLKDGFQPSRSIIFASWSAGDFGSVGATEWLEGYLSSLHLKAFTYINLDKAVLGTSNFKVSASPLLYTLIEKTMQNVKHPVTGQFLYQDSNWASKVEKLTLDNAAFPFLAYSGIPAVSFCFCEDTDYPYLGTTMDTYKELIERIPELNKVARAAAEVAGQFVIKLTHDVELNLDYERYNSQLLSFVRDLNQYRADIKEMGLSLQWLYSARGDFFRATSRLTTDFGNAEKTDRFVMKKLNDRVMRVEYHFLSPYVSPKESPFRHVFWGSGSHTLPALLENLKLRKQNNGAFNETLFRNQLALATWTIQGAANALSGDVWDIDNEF

The assay has as its target T1, human transferrin receptor (hTfR) (human, UniProt P02786 89-760, limits assumed).
T1 construct: 0.5 uM hTfR solution immobilised on a Ni-NTA chip with EDC/NHS; source and construct are not described; also called human TfR
As to the kind of experiment: SPR, hTfR immobilised on NTA chip, single cycle kinetics; A = KD less than 100 nM. On the procedure:
The various synthesized peptide-nucleic acid conjugates were tested for intermolecular interaction by surface plasmon resonance (SPR) of the peptide-nucleic acid conjugate with transferrin receptor (hTfR) using the method shown below. The specific test method is shown below.
NTA sensor chip (Global Life Science Technologies Japan Co., Ltd.) was inserted into Biacore T200 (Global Life Science Technologies Japan Co., Ltd.), prime operation was performed three times with running buffer: 10 mM HEPES pH 8.0 (Nacalai Tesque Co., Ltd.), 150 mM NaCl (Nacalai Tesque Co., Ltd.), 0.05% Tween 20 (Nacalai Tesque Co., Ltd.), 0.1% BSA (SIGMA-ALDRICH), and 1.0% DMSO (FUJIFILM Wako Pure Chemical Corporation), and equilibrated at a flow rate of 30 μL/min. 350 mM EDTA solution was reacted for 60 seconds at a flow rate of 10 μL/min, 0.5 mM NiCl₂ solution (Kishida Chemical) was reacted for 60 seconds at a flow rate of 10 μL/min, and the NTA sensor chip was washed with 3 mM EDTA solution (Nacalai Tesque Co., Ltd.) for 60 seconds at a flow rate of 10 μL/min. After mixing 50 μL each of 60 mM EDC solution (Global Life Science Technologies Japan Co., Ltd.) and 650 mM NHS solution (Global Life Science Technologies Japan Co., Ltd.), the mixture was reacted for 420 seconds at a flow rate of 10 μL/min. 150 μL of a 0.5 μM hTfR solution was prepared by diluting with a running buffer and reacted for 300 seconds at a flow rate of 10 μL/min to immobilize hTfR on the NTA sensor chip. After immobilization, capping was performed by reacting with a 1.0 M ethanolamine aqueous solution (Global Life Science Technologies Japan Co., Ltd.) at a flow rate of 10 μL/min for 420 seconds. A peptide-nucleic acid conjugate solution adjusted to 10 mM in DMSO solution was diluted with running buffer to a final concentration of […] peptide-nucleic acid conjugate solution, and 100 nM, 50 nM, 25 nM, 10 nM, 5 nM peptide-nucleic acid conjugate solutions were prepared. Using the aforementioned samples, the kinetics of the peptide against hTfR was obtained by SPR measurement.
The kinetics evaluation model was Single Cycle Kinetics, and curve fitting was performed using Biacore T200 Evaluation Software Version 3.0 (Global Life Science Technologies Japan Co., Ltd.).
A general note: SPR reads the build-up and loss of mass on a sensor chip optically.
B1: the Kd (usually the equilibrium constant for the complex coming apart) was < 100 nM. As for B2, the Kd was < 100 nM. With B3, the Kd was < 100 nM.

For the molecule B4, the Kd is < 100 nM. As for B5, the dissociation constant (Kd) was < 100 nM. Regarding B6, the Kd is < 100 nM. On to B7, for which the Kd is < 100 nM. As for B8, the Kd is < 100 nM. On to B9, for which the Kd is < 100 nM. Next, B10: < 100 nM; B11: < 100 nM; B12: < 100 nM. On to B13, for which the dissociation constant Kd is < 100 nM. Take B14: the Kd was < 100 nM. For the molecule B15, the Kd was < 100 nM.

For B16, the Kd is < 100 nM. Take B17: the Kd is < 100 nM. For the molecule B18, the Kd was < 100 nM. Regarding B19, the Kd was < 100 nM.

Regarding B20, the Kd was < 100 nM. B21: the Kd is < 100 nM. For B22, the Kd is < 100 nM.

Regarding B23, the Kd was < 100 nM. In the case of B24, the Kd is < 100 nM. On to B25, for which the Kd is < 100 nM.

As for B26, the dissociation constant (Kd) was < 100 nM.

Take B27: the Kd was < 100 nM.
